Experiment [1] has as its target T1, LRS-(1-1176) / RagD binding (Homo sapiens, UniProt Q9NQL2).
T1 construct: Purified GST-RagD was incubated with His-LRS-(1-1176) coated on a plate; made in house; host or cells: E. coli BL21(DE3) for His-LRS (pET 16a); E. coli BL21 for GST-RagD (pGEX4T3)
Kind of experiment: ELISA for binding between LRS and RagD. To be noted: GST-RagD on plate coated with His-LRS-(1-1176), fragment added during incubation. On the procedure: FIGS. 13a and 13b show ELISA assay results for measuring binding affinity between LRS and RagD.
In FIG. 13b, the comparison result of binding affinity for control (GST), RagD and RagD+LRS-(759-1176) on a 96 well plate coated with LRS-(1-1176) is shown.
First, each fragment of LRS was synthesized by PCR amplification using the cDNA of LRS as a template and a primer set (Table 1) specific for each fragment. The PCR amplification was performed under the following conditions: predenaturation of the template DNA at 95° C. for 2 min; and then 30 cycles, each consisting of 30 sec at 95° C., 30 sec at 56° C., and 3 min and 30 sec at 72° C.; followed by final extension at 72° C. for 10 min. Each of the PCR products was digested with NdeI and BamHI and ligated into a pET 16a vector (Novagen) digested with the same restriction enzymes. E. coli BL21(DE3) cells were transformed with the vector and cultured to induce the expression of peptides. Each peptide expressed as a His-tag fusion protein was purified by Ni-chelating agarose. […]
A fragment of RagD was synthesized by PCR amplification using the cDNA of […] as a template and a primer set (Table 1) specific for each fragment. […] Each peptide expressed as a GST-tag fusion protein was purified by GSH agarose. […]
On the technique in general: In an ELISA, binding on a coated surface is turned into a signal by an enzyme label.

The next experiment concerns the target T2, RagD GTPase (Homo sapiens, UniProt Q9NQL2).
T2 construct: made in house; host or cells: LRS fragment: E. coli BL21(DE3), pET 16a
As to the kind of experiment: In vitro GTPase assay. The class given is biochemical. The settings on record: LRS (759-1176 a.a) fragment incubated with RagD, 37° C. Here is the method: In FIG. 7a, the indicated amounts of Histagged LRS (759-1176 a.a) fragment were incubated with 0.15 pM RagD for 20 min at 37° C. The error bars represent mean S.D. (n=3).
In FIG. 7b, his-tagged LRS fragments (0.3 μM) were incubated with RagD for the indicated times. The error bars represent mean S.D. (n=3).
In FIG. 7d, the effects of LRS WT and mutants on GTP hydrolysis of RagD is shown. Purified LRS WT (759-1176 a.a) fragment or mutants (H844A, R845A) fragments were incubated with RagD for 20 min at 37° C. The error bars represent mean S.D. (n=3).
GTPase assays were conducted in assay buffer (20 mM piperazine-N,N9-bis(2-ethanesulfonic acid), 20 mM HEPES, 5 mM MgCl2, 125 mM NaCl, 5 mM KCl at pH 7.0, 0.5 mM GTP) containing 0.1% bovine serum albumin in a final volume of […] using GTPase assay kit (Innova Biosciences) according to manufacturer's instructions.

Where a chain is given by its changes, count along the chain named. Names and notes keep the numbering of the source.

T2 sequence (Q9NQL2 whole entry, the tested form may be a part): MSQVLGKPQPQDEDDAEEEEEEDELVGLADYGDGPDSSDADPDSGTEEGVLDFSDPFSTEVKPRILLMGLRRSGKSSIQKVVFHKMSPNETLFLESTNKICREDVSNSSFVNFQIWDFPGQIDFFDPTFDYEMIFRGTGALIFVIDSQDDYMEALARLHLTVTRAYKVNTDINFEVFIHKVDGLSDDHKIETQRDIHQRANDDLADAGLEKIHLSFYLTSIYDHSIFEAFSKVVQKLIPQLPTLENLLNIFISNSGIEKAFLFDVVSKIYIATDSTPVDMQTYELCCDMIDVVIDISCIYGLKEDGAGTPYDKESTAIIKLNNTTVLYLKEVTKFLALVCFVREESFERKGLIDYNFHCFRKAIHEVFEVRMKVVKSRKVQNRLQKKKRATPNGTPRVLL
T1 sequence (Q9NQL2 whole entry): as the sequence (Q9NQL2 whole entry, the tested form may be a part) above

B1: His-LRS-(759-1176): His-tagged fragment of leucyl tRNA synthetase, residues 759-1176 (protein)
chain: MADAGILRLYTWVEWVKEMVANWDSLRSGPASTFNDRVFASELNAGIIKTDQNYEKMMFKEALKTGFFEFQAAKDKYRELAVEGMHRELVFRFIEVQTLLLAPFCPHLCEHIWTLLGKPDSIMNASWPVAGPVNEVLIHSSQYLMEVTHDLRLRLKNYMMPAKGKKTDKQPLQKPSHCTIYVAKNYPPWQHTTLSVLRKHFEANNGKLPDNKVIASELGSMPELKKYMKKVMPFVAMIKENLEKMGPRILDLQLEFDEKAVLMENIVYLTNSLELEHIEVKFASEAEDKIREDCCPGKPLNVFRIEPGVSVSLVNPQPSNGHFSTKIEIRQGDNCDSIIRRLMKMNRGIKDLSKVKLMRFDDPLLGPRRVPVLGKEYTEKTPISEHAVFNVDLMSKKIHLTENGIRVDIGDTIIYLVH
modifications: left off: small tags and cut ends
As to B1, the “binding between RagD and LRS-(1-1176)” value was “inhibited” in experiment [1] and “decreased the binding affinity” in experiment [1] (listed as LRS-(759-1176)). For the same molecule, the “GTP hydrolysis by RagD GTPase (GAP activity)” value (from here on “GTP hydrolysis by RagD GTPase”) in the experiment with RagD GTPase was “enhanced GTP hydrolysis by RagD GTPase in dose- and time-dependent manner”.

B2: H844A: LRS (759-1176 a.a) fragment with alanine mutation H844A in the putative GAP motif (protein, UniProt Q9P2J5 759-1176, looked up, variant H844A)
chain: B1 chain with H86A
For B2, the “GTP hydrolysis by RagD GTPase” value with RagD GTPase is “lost their GAP activity”.

B3: R845A: LRS (759-1176 a.a) fragment with alanine mutation R845A in the putative GAP motif (protein, UniProt Q9P2J5 759-1176, looked up, variant R845A)
chain: B1 chain with R87A
Consider B3, for which the “GTP hydrolysis by RagD GTPase” value in the experiment with RagD GTPase is recorded as “lost their GAP activity”.

The values above are taken from US9435807B2, “Use of leucyl tRNA synthetase” (Medicinal Bioconvergence Research Center, priority 2011, dated 2016).
